Reference: patent publication JP2018076351A (dated 2018)

Tests used:
human PCSK9 (wild type) [1] = target: human PCSK9 (wild type) (human); experiment: KinExA, solution equilibrium, PCSK9-coated beads
cynomolgus monkey PCSK9 = cynomolgus monkey PCSK9 (cynomolgus monkey, UniProt A0A7N9D9N8 150-747); experiment: KinExA, solution equilibrium, PCSK9-coated beads; KD adjusted for 50 % active cPCSK9
human PCSK9 (wild type) [2] = target: human PCSK9 (wild type) (human); experiment: Biacore at pH 6.0 (HBS-P with 0.01 % BSA); KD from nonlinear regression of competition curves, n=1

Row | Kd (human PCSK9 (wild type) [1]) | Kd (cynomolgus monkey PCSK9) | Kd (human PCSK9 (wild type) [2]) | Binder
1 | 0.003 nM | 0.002 nM | 0.0125 nM | 31H4 (antibody, V domains shown) VH: EVQLVESGGGLVKPGGSLRLSCAASGFTFSSYSMNWVRQAPGKGLEWVSSISSSSSYISYADSVKGRFTISRDNAKNSLYLQMNSLRAEDTAVYFCARDYDFWSAYYDAFDVWGQGTMVTVSS VL: QSVLTQPPSVSGAPGQRVTISCTGSSSNIGAGYDVHWYQQLPGTAPKLLISGNSNRPSGVPDRFSGSKSGTSASLAITGLQAEDEADYYCQSYDSSLSGSVFGGGTKLTVLQ
2 | 0.015 nM | 0.016 nM | 0.029 nM | 16F12 (antibody, V domains shown) VH: QVHLVESGGGVVQPGRSLRLSCAASGFTFNSFGMHWVRQAPGKGLEWVALIWSDGSDEYYADSVKGRFTISRDNSKNTLYLQMNSLRAEDTAVYYCARAIAALYYYYGMDVWGQGTTVTVSS VL: QSVLTQPPSVSAAPGQKVTISCSGSSSNIGNNFVSWYQQLPGTAPKLLIYDYNKRPSGIPDRFSGSKSGTSATLGITGLQTGDEADYYCGTWDSSLSAYVFGTGTRVTVLQ
